{
  "source": "paper doi:10.1101/2021.12.01.470822",
  "about": "(bioRxiv, 2021)",
  "binders": {"B1": {"name": "ABD1 of PLS2 (domain or fragment)", "chain": "EGICAIGGTSEQSSVGTQHSYSEEEKYAFVNWINKALENDPDCRHVIPMNPNTNDLFNAVGDGIVLCKMINLSVPDTIDERTINKKKLTPFTIQENLNLALNSASAIGCHVVNIGAEDLKEGKPYLVLGLLWQVIKIGLFADIELSRNEALIALLREGESLEDLMKLSPEELLLRWANYHLENAGCNKIGNFSTDIKDSKAYYHLLEQVAPKGDEEGVPAVVIDMSGLREKDDIQRAECMLQQAERLGCRQFVTATDVVRGNPKLNLAFIANLFNRYP"}},
  "key": {"[1]": {"biological_target": "T1, F-actin (skeletal muscle actin) ( (rabbit or chicken skeletal …, UniProt P68135 1-377))", "assay": "fluorescence polarisation"}, "RD-ABD1 of PLS2 [2]": {"biological_target": "T2, RD-ABD1 of PLS2 (human, UniProt P13796 1-375)", "T2 sequence": "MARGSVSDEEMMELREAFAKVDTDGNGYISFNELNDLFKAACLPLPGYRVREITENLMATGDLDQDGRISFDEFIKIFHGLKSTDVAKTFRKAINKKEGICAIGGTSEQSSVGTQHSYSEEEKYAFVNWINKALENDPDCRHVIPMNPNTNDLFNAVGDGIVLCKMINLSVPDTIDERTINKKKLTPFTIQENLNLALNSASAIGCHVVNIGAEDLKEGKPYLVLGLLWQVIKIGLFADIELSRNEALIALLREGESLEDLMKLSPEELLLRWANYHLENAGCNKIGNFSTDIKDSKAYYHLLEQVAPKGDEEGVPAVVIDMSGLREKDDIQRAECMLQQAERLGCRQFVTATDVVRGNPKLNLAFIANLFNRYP", "assay": "fluorescence polarisation"}, "ABD1 of PLS2": {"biological_target": "B1", "assay": "fluorescence polarisation"}, "RD-ABD1 of PLS2 [3]": {"biological_target": "T2, RD-ABD1 of PLS2", "assay": "fluorescence polarisation", "remark": "listed apart in the source"}, "[4]": {"biological_target": "T1, F-actin (skeletal muscle actin)", "assay": "fluorescence polarisation", "remark": "listed apart in the source"}, "[5]": {"biological_target": "T1, F-actin (skeletal muscle actin)", "assay": "co-sedimentation"}},
  "note": "Read-outs that look alike come from different tables or passages of the source.",
  "data": [
    {"binder": "ABD2 of PLS2, unlabeled (domain or fragment) DIDWGALEGETREERTFRNWMNSLGVNPRVNHLYSDLSDALVIFQLYEKIKVPVDWNRVNKPPYPKLGGNMKKLENCNYAVELGKNQAKFSLVGIGGQDLNEGNRTLTLALIWQLMRRYTLNILEEIGGGQKVNDDIIVNWVNETLREAKKSSSISSFKDPKISTSLPVLDLIDAIQPGSINYDLLKTENLNDDEKLNNAKYAISMARKIGARVYALPEDLVEVNPKMVMTVFACLMGKGMKRV", "values": [
      {"measurement": "Kd", "setting": "[1]", "result": "3.6 ± 0.3", "unit": "nM"},
      {"measurement": "Kd", "setting": "RD-ABD1 of PLS2 [2]", "result": "2.9 ± 0.5", "unit": "nM"},
      {"measurement": "Kd", "setting": "ABD1 of PLS2", "result": "11.4 ± 0.7", "unit": "nM"},
      {"measurement": "Kd", "setting": "RD-ABD1 of PLS2 [3]", "result": "3 ± 0.9", "unit": "nM"}
    ]},
    {"binder": "fluorescein-labeled ABD2 of PLS2 (domain or fragment, fluorescein-5-maleimide (FM) label) DIDWGALEGETREERTFRNWMNSLGVNPRVNHLYSDLSDALVIFQLYEKIKVPVDWNRVNKPPYPKLGGNMKKLENCNYAVELGKNQAKFSLVGIGGQDLNEGNRTLTLALIWQLMRRYTLNILEEIGGGQKVNDDIIVNWVNETLREAKKSSSISSFKDPKISTSLPVLDLIDAIQPGSINYDLLKTENLNDDEKLNNAKYAISMARKIGARVYALPEDLVEVNPKMVMTVFACLMGKGMKRV", "values": [
      {"measurement": "Kd", "setting": "[4]", "result": "9.9 ± 3.7", "unit": "nM"}
    ]},
    {"binder": "full-length PLS2 (plastin 2), wild type (natural protein) MARGSVSDEEMMELREAFAKVDTDGNGYISFNELNDLFKAACLPLPGYRVREITENLMATGDLDQDGRISFDEFIKIFHGLKSTDVAKTFRKAINKKEGICAIGGTSEQSSVGTQHSYSEEEKYAFVNWINKALENDPDCRHVIPMNPNTNDLFNAVGDGIVLCKMINLSVPDTIDERTINKKKLTPFTIQENLNLALNSASAIGCHVVNIGAEDLKEGKPYLVLGLLWQVIKIGLFADIELSRNEALIALLREGESLEDLMKLSPEELLLRWANYHLENAGCNKIGNFSTDIKDSKAYYHLLEQVAPKGDEEGVPAVVIDMSGLREKDDIQRAECMLQQAERLGCRQFVTATDVVRGNPKLNLAFIANLFNRYPALHKPENQDIDWGALEGETREERTFRNWMNSLGVNPRVNHLYSDLSDALVIFQLYEKIKVPVDWNRVNKPPYPKLGGNMKKLENCNYAVELGKNQAKFSLVGIGGQDLNEGNRTLTLALIWQLMRRYTLNILEEIGGGQKVNDDIIVNWVNETLREAKKSSSISSFKDPKISTSLPVLDLIDAIQPGSINYDLLKTENLNDDEKLNNAKYAISMARKIGARVYALPEDLVEVNPKMVMTVFACLMGKGMKRV", "values": [
      {"measurement": "Kd", "setting": "[5]", "result": "5700 ± 1000", "unit": "nM"}
    ]},
    {"binder": "B1", "values": [
      {"measurement": "Kd", "setting": "[5]", "result": "2600 ± 1000", "unit": "nM"}
    ]}
  ]
}
